Reference: US20040018971A1 (published 2004)

Legend:
[1] = molecular target: HLA-A*0301 (purified HLA class I molecule) (human); assay: competition with 125I-labelled probe peptide on purified HLA-A*0301, gel filtration
HLA-A*0201 = molecular target: T1, HLA-A*0201 (human); assay: inhibition of 125I-labelled probe peptide binding to purified HLA, gel filtration
T1 construct: also called HLA-A2.1

HLA-B*0702 = HLA-B*0702 (human); assay: competition vs 125I-labelled probe peptide, purified HLA, gel filtration
HLA-B*3501 = HLA-B*3501 (human); assay: as above
HLA-B*5101 = HLA-B*5101 (human); assay: as above
HLA-B*5301 = HLA-B*5301 (human); assay: as above
HLA-B*5401 = HLA-B*5401 (human); assay: as above
HLA-A*0301 = molecular target: T2, HLA-A*0301 (human); assay: inhibition of 125I-labelled probe peptide binding to purified HLA-A*0301, gel filtration; ratio to standard peptide 941.12 [..] (11 nM)
T2 construct: also called HLA-A3

B1: HER2/NEU A03 motif peptide, position 868, 10 amino acids (peptide)
peptide: RLLDIDETEY
notes: Synthetic peptide
Question: For B1, which “relative binding ratio (IC50 of standard peptide / IC50 of test peptide)” value [1] is on record?
Answer: Its value is 0.0017 ratio.

B2: HER2/NEU A03 motif peptide, position 713, 9 amino acids (peptide)
peptide: RILKETELR
notes: Synthetic peptide
Question: With B2 as the binder, how does the “relative binding ratio (IC50 of standard peptide / IC50 of test peptide)” value [1] read?
Answer: The value was 0.0007 ratio.

B3: HER2/neu peptide, position 1172, 10 amino acids (peptide)
peptide: TLSPGKNGVV
notes: Synthetic peptide; also called HER2/neu 1172-1181
Question: With B3 as the binder, how does the relative binding ratio (HLA-A*0201) read?
Answer: The relative binding ratio was 0.0001 ratio (IC50 of standard peptide / IC50 of test peptide).

B4: Her2/neu.1157.F1I11 (peptide)
peptide: FPAARPAGATI
notes: 11-mer analog of the HER2/neu peptide starting at position 1157
Question: What does the source list for B4?
Answer: IC50 (HLA-B*0702): 39 nM; IC50 (HLA-B*3501): 4240 nM; IC50 (HLA-B*5101): 13 nM; IC50 (HLA-B*5301): 332 nM; IC50 (HLA-B*5401): 50 nM

B5: Her2/neu.1157.F1 (peptide)
peptide: FPAARPAGATL
notes: as for B4
Question: Which IC50 (HLA-B*0702) does the source give for B5 here?
Answer: Its IC50 is 3.9 nM.

Question: And the IC50 (HLA-B*3501)?
Answer: The IC50 was 360 nM.

Question: And the IC50 (HLA-B*5101)?
Answer: The IC50 was 239 nM.

Question: What about the IC50 (HLA-B*5301) of the same binder?
Answer: The IC50 was 2910 nM.

B6: HER2/NEU A03 motif peptide, position 713, 10 amino acids (peptide)
peptide: RILKETELRK
notes: Synthetic peptide
Question: How did the “relative binding ratio (IC50 of standard peptide / IC50 of test peptide)” value [1] turn out when B6 was run?
Answer: Its value is 0.057 ratio.

B7: HER2/neu peptide, position 841, 9 amino acids (peptide)
peptide: LVHRDLAAR
notes: Synthetic peptide; also called Her2/neu.841 (9-mer)
Question: B7 was tested. Which “relative binding ratio (IC50 of standard peptide / IC50 of test peptide)” value (HLA-A*0301) did it give?
Answer: Its value is 0.004.

B8: HER2/neu peptide, position 666, 9 amino acids (peptide)
peptide: VLGVVFGIL
notes: Synthetic peptide; also called HER2/neu 666-674
Question: How did the relative binding ratio (HLA-A*0201) turn out when B8 was run?
Answer: Its relative binding ratio is 0.0005 ratio (IC50 of standard peptide / IC50 of test peptide).

B9: HER2/neu peptide, position 546, 10 amino acids (peptide)
peptide: VLQGLPREYV
notes: Synthetic peptide
Question: With B9 as the binder, how does the relative binding ratio (HLA-A*0201) read?
Answer: Its relative binding ratio is 0.0009 ratio (IC50 of standard peptide / IC50 of test peptide).

B10: Her2/neu.1101.F1I9 (peptide)
peptide: FPTHDPSPI
Question: Which results are given for B10?
Answer: IC50 (HLA-B*0702): 108 nM; IC50 (HLA-B*3501): 600 nM; IC50 (HLA-B*5101): 56 nM; IC50 (HLA-B*5301): 274 nM; IC50 (HLA-B*5401): 50 nM

B11: Her2/neu.921.F1I11 (peptide)
peptide: FPYDGIPAREI
notes: 11-mer B7 supermotif analog of the HER2/neu peptide starting at position 921
Question: B11 was tested. Which IC50 (HLA-B*0702) did it give?
Answer: The IC50 was 141 nM.

Question: What about the IC50 (HLA-B*3501) of the same binder?
Answer: The IC50 was 2880 nM.

Question: What about the IC50 (HLA-B*5101) of the same binder?
Answer: The IC50 was 50 nM.

Question: What about the IC50 (HLA-B*5301) of the same binder?
Answer: Its IC50 is 465 nM.

Question: And the IC50 (HLA-B*5401)?
Answer: Its IC50 is 15 nM.

B12: HER2/NEU A03 motif peptide, position 182, 9 amino acids (peptide)
peptide: TLIDTNRSR
notes: Synthetic peptide
Question: How did the “relative binding ratio (IC50 of standard peptide / IC50 of test peptide)” value [1] turn out when B12 was run?
Answer: The value was 0.0004 ratio.

B13: HER2/neu peptide, position 745, 9 amino acids (peptide)
peptide: NVKIPVAIK
notes: Synthetic peptide; also called Her2/neu.745 (9-mer)
Question: With B13 as the binder, how does the “relative binding ratio (IC50 of standard peptide / IC50 of test peptide)” value (HLA-A*0301) read?
Answer: The value was 0.0058.

B14: HER2/NEU A03 motif peptide, position 166, 10 amino acids (peptide)
peptide: TILWKDIFHK
notes: Synthetic peptide; also called Her2/neu.166
Question: B14 was tested. Which “relative binding ratio (IC50 of standard peptide / IC50 of test peptide)” value [1] did it give?
Answer: The value was 0.043 ratio.

B15: HER2/neu peptide, position 360, 9 amino acids (peptide)
peptide: NIQEFAGCK
notes: Synthetic peptide; also called Her2/neu.360 (9-mer)
Question: With B15 as the binder, how does the “relative binding ratio (IC50 of standard peptide / IC50 of test peptide)” value (HLA-A*0301) read?
Answer: The value was 0.0002.

B16: Her2/neu.998.F1I11 (peptide)
peptide: FPLDSTFYRSI
notes: 11-mer analog of the HER2/neu peptide starting at position 998
Question: With B16 as the binder, how does the IC50 (HLA-B*0702) read?
Answer: The IC50 was 229 nM.

Question: What about the IC50 (HLA-B*3501) of the same binder?
Answer: The IC50 was 2670 nM.

Question: What about the IC50 (HLA-B*5101) of the same binder?
Answer: Its IC50 is 46 nM.

Question: And the IC50 (HLA-B*5301)?
Answer: Its IC50 is 620 nM.

Question: What about the IC50 (HLA-B*5401) of the same binder?
Answer: Its IC50 is 2.4 nM.

B17: Her2/neu.998.F1 (peptide)
peptide: FPLDSTFYRSL
notes: as for B16
Question: B17 was tested. Which IC50 (HLA-B*0702) did it give?
Answer: Its IC50 is 42 nM.

Question: What about the IC50 (HLA-B*3501) of the same binder?
Answer: Its IC50 is 400 nM.

Question: What about the IC50 (HLA-B*5101) of the same binder?
Answer: The IC50 was 324 nM.

Question: And the IC50 (HLA-B*5301)?
Answer: The IC50 was 1190 nM.

Question: And the IC50 (HLA-B*5401)?
Answer: The IC50 was 2.7 nM.

B18: HER2/neu peptide, position 154, 10 amino acids (peptide)
peptide: LIQRNPQLCY
notes: Synthetic peptide; also called Her2/neu.154 (10-mer)
Question: B18 was tested. Which “relative binding ratio (IC50 of standard peptide / IC50 of test peptide)” value (HLA-A*0301) did it give?
Answer: Its value is 0.0012.

B19: HER2/neu peptide, position 822, 10 amino acids (peptide)
peptide: LLNWCMQIAK
notes: Synthetic peptide
Question: For B19, which “relative binding ratio (IC50 of standard peptide / IC50 of test peptide)” value (HLA-A*0301) is on record?
Answer: The value was 0.14.

B20: HER2/neu peptide, position 411, 9 amino acids (peptide)
peptide: YISAWPDSL
notes: Synthetic peptide
Question: How did the relative binding ratio (HLA-A*0201) turn out when B20 was run?
Answer: The relative binding ratio was 0.0003 ratio (IC50 of standard peptide / IC50 of test peptide).

B21: HER2/neu peptide, position 360, 10 amino acids (peptide)
peptide: NIQEFAGCKK
notes: Synthetic peptide; also called Her2/neu.360 (10-mer)
Question: With B21 as the binder, how does the “relative binding ratio (IC50 of standard peptide / IC50 of test peptide)” value (HLA-A*0301) read?
Answer: Its value is 0.0003.

B22: HER2/neu peptide, position 658, 9 amino acids (peptide)
peptide: VVGILLVVV
notes: Synthetic peptide
Question: How did the relative binding ratio (HLA-A*0201) turn out when B22 was run?
Answer: The relative binding ratio was 0.0005 ratio (IC50 of standard peptide / IC50 of test peptide).

B23: HER2/NEU A03 motif peptide, position 103, 10 amino acids (peptide)
peptide: RGTQLFEDNY
notes: Synthetic peptide
Question: How did the “relative binding ratio (IC50 of standard peptide / IC50 of test peptide)” value [1] turn out when B23 was run?
Answer: The value was 0.0003 ratio.

B24: Her2/neu.1073.F1I9 (peptide)
peptide: FPLAPSEGI
notes: 9-mer analog of the HER2/neu peptide starting at position 1073
Question: B24 was tested. Which IC50 (HLA-B*0702) did it give?
Answer: Its IC50 is 100 nM.

Question: And the IC50 (HLA-B*3501)?
Answer: The IC50 was 554 nM.

Question: What about the IC50 (HLA-B*5101) of the same binder?
Answer: Its IC50 is 204 nM.

Question: What about the IC50 (HLA-B*5301) of the same binder?
Answer: Its IC50 is 239 nM.

Question: And the IC50 (HLA-B*5401)?
Answer: The IC50 was 5.9 nM.

B25: Her2/neu.966.F1I11 (peptide)
peptide: FPRFRELVSEI
notes: 11-mer analog of the HER2/neu peptide starting at position 966
Question: How did the IC50 (HLA-B*0702) turn out when B25 was run?
Answer: The IC50 was 229 nM.

Question: What about the IC50 (HLA-B*3501) of the same binder?
Answer: Its IC50 is 240 nM.

Question: What about the IC50 (HLA-B*5101) of the same binder?
Answer: The IC50 was 167 nM.

Question: What about the IC50 (HLA-B*5401) of the same binder?
Answer: Its IC50 is 28 nM.

B26: HER2/NEU A03 motif peptide, position 208, 10 amino acids (peptide)
peptide: SSEDCQSLTR
notes: Synthetic peptide
Question: Which “relative binding ratio (IC50 of standard peptide / IC50 of test peptide)” value [1] does the source give for B26 here?
Answer: Its value is -0.0002 ratio.

B27: Her2/neu.995.F1 (peptide)
peptide: FPASPLDSTF
notes: 10-mer analog of the HER2/neu peptide starting at position 995
Question: Which results are given for B27?
Answer: IC50 (HLA-B*0702): 3.7 nM; IC50 (HLA-B*3501): 10 nM; IC50 (HLA-B*5101): 579 nM; IC50 (HLA-B*5301): 10 nM; IC50 (HLA-B*5401): 200 nM

B28: HER2/NEU A03 motif peptide, position 978, 9 amino acids (peptide)
peptide: RMARDPQRF
notes: Synthetic peptide
Question: How did the “relative binding ratio (IC50 of standard peptide / IC50 of test peptide)” value [1] turn out when B28 was run?
Answer: Its value is 0.0001 ratio.
